Our source for the ATPase activity of fully labeled 23C-176C ClpB with 25 μM κ-casein relative to basal values is article PMC8056383.

For this assay, the target named is 23C-176C double-cysteine mutant of full-length ClpB, labelled with Alexa Fluor 488 and Alexa Fluor 594 (Thermus thermophilus) (UniProt Q9RA63).
Chain of 23C-176C double-cysteine mutant of full-length ClpB, labelled with Alexa Fluor 488 and Alexa Fluor 594 (Thermus thermophilus) (Q9RA63 whole entry R23C/D176C): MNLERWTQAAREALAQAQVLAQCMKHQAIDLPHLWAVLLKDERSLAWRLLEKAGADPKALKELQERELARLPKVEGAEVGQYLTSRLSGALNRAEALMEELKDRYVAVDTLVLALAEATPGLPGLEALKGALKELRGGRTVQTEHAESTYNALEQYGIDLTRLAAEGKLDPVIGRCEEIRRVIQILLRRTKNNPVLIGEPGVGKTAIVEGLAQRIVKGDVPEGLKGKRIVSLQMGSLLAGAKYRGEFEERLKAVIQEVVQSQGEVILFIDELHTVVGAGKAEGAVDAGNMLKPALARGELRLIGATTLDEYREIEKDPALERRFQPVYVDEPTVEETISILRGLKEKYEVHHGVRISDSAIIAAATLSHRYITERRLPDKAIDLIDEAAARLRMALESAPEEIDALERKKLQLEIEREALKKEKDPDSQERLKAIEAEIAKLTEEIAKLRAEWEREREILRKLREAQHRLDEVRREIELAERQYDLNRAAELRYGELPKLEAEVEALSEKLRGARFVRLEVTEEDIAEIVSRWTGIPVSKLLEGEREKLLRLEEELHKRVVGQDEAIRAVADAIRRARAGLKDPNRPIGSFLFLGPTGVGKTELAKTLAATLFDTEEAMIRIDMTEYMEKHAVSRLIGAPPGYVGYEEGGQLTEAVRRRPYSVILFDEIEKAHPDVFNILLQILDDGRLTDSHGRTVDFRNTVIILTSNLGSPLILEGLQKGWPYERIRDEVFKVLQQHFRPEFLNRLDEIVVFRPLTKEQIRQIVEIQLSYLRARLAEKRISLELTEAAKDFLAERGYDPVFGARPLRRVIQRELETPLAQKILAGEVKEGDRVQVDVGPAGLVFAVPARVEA

“κ-casein (from UniProt P02668 22-190) (natural protein)” had an ATPase activity of fully labeled 23C-176C ClpB with 25 μM κ-casein relative to basal of 3.1 fold.
